Source: patent publication US20100273186A1, “SPLIT MUTANT HYDROLASE FUSION REPORTER AND USES THEREOF” (Promega Corporation, priority 2007, published 2010)

Tests used:
[1] = molecular target: T1, rapamycin-mediated FRB/FKBP protein-protein interaction (Homo sapiens, UniProt P42345+P62942); assay: Protein complementation labeling (PCL) in vitro with split HT2; type: biochemical; details: with or without 1 μM rapamycin, 0.1 μM TMR ligand
T1 construct: made in house; host or cells: cell-free: RiboMax transcription followed by Wheat Germ Plus translation
Experimental: The rapamycin-mediated FRB/FKBP protein-protein interaction and a mutant DhaA were employed in a PCL. FRB and FKBP will only interact when rapamycin is present. Therefore, if PCL is successful, the reconstituted reporter is labeled only when the fusion proteins are incubated together in the presence of rapamycin.
Two pF9 (Kan) vectors were generated which contained either FRB or FKBP ORF plus the linker sequence (GlyGlyGlyGlySer)2 (SEQ ID NO:14 represents GlyGlyGlyGlySer) upstream of the SefI/PmeI sites. A mutant DhaA gene (HT2) at positions corresponding to those useful to prepare Renilla luciferase fragments for PCS (see Example 2 and FIG. 7) with FRB-N terminal and FKBP-C terminal fusions. HT2 N- and C-termini halves were amplified using PCR primers and cloned into the SefI/PmeI sites. PCL was performed in vitro by expressing each clone individually using RiboMax followed by Wheat Germ Plus reactions (HT2). Protein was expressed with or without FluoroTect™. FluoroTect™ labeling ensured that all proteins were expressed in approximately equal amounts (data not shown). Unlabeled proteins were then incubated alone or with the appropriated partner with or without 1 μM rapamycin. Ten μl of these products were then incubated with 0.1 μM of a TMR labeled ligand for the mutant dehalogenase, for 2 hours in the dark. […]

[2] = Thermostability of mutant DhaAs; type: physicochemical
Experimental: Moreover, V7>V6>V7F>V3>HT2 for thermostability. For example, under some conditions (30 minute exposure to 48° C.) purified V7F loses 50% of its activity, while V7 still maintains 80% activity. The thermostability discrepancy between the two is more dramatic when they V7 and V7F are expressed in E. coli and analyzed as lysates.

[3] = Fluorescence polarization (FP) labeling assay; type: binding
Excerpt: Fluorescence polarization (FP) is ideal for the study of small fluorescent ligands binding to proteins. It is unique among methods used to analyze molecular binding because it gives direct nearly instantaneous measure of a substrate bound/free ratio. Therefore, an FP assay was developed as an alternative approach to fluorimage gel analysis of the purified DhaA mutants. […] To place this rate in perspective, approximately 42 and 420-fold more A7 and parental, i.e., DhaA.H272F, protein, respectively, was required in the reaction to obtain measurable rates. Under the labeling conditions used, it is evident that the H11YL mutant was also considerably faster than A7 and parental, DhaA.H272F proteins with the fluorescein-based substrate. However, it appears that labeling of H11YL with carboxyfluorescein-C10H21NO2—Cl is markedly slower than labeling with the corresponding carboxytetramethylrhodamine-C10H21NO2—Cl substrate. Four-fold more H11YL protein was used in the carboxyfluorescein-C10H21NO2—Cl reaction (150 nM) versus the carboxytetramethylrhodamine-C10H21NO2—Cl reaction (35 nM), yet the rate observed appeared to be qualitatively slower than the observed carboxytetramethylrhodamine-C10H21NO2—Cl rate.
Based on the sensitivity and truly homogenous nature of this assay, FP was used to characterize the labeling properties of the purified DhaA mutants with the fluorescently coupled substrates. The data from these studies was then used to calculate a second order rate constant for each DhaA mutant-substrate pair. […] However, in each case labeling was slower with the carboxyfluorescein-C10H21NO2—Cl substrate. All of the first generation DhaA mutants characterized by FP had rates that ranged from 7 to 3555-fold faster than the corresponding parental protein. By far, the biggest impact on labeling rate by a single amino acid substitution occurred with the three replacements at the 273 position (Y273L, Y273M, and Y273C) in the DhaA.H272F background. Nevertheless, in each of the first generation DhaA.H272F mutants tested, labeling with the carboxyfluorescein-C10H21NO2—Cl substrate always occurred at a slower rate (1.6 to 46-fold). […] The H11YL rate constant of 2.2×10^6 M^−1 sec^−1 was nearly identical to the rate constant calculated for a carboxytetramethylrhodamine-coupled biotin/streptavidin interaction. This value is consistent with an on-rate of 5×10^6 M^−1 sec^1 determined for a biotin-streptavidin interaction using surface plasmon resonance analysis (Qureshi et al., 2001). Several of the second generation mutants also had improved rates with the carboxyfluorescein-C10H21NO2—Cl substrate, however, as noted previously, these rates were always slower than with the carboxytetramethylrhodamine-C10H21NO2—Cl substrate. […]

[4] = molecular target: T1, rapamycin-mediated FRB/FKBP protein-protein interaction; assay: PCL in transiently transfected CHO cells; type: cell-based; details: +/−1 μM rapamycin, 1.0 μM HaloTag TMR ligand
Experimental: For transient transfections, CHO cells were plated in a 6 well plate and transfected in duplicate using TransIT®-CHO. The next day, cells were incubated +/−1 μM rapamycin for 2.5 hours followed by 1.0 μM HaloTag® TMR ligand for 1 hour. Cells were washed in PBS, trypsinized, pelleted and mechanically lysed in 200 ul PBS with protease inhibitor and RQDNase I. Normalized amounts of proteins were microwaved for 30 seconds on high and run on a denaturing NuPAGE® gel.

[5] = Kinetic labeling studies, fluorimage gel analysis; type: binding; details: 10 ng protein, refined time-course, fluorimaged gel
Experimental: To facilitate comparative kinetic studies several improved DhaA mutants were selected for purification using a Glutathione Sepharose 4B resin. In general, production of DhaA.H272F and DhaA.D106C based fusions in E. coli was robust, although single amino acid changes may have negative consequences on the production of DhaA. As a result of this variability in protein production, the overall yield of the DhaA mutants also varied considerably (1-15 mg/mL). Preliminary kinetic labeling studies were performed using several DhaA.H272F derived mutants. Many, if not all, of the mutants chosen for analysis had faster labeling kinetics than the H272F parent. In fact, upon closer inspection of the time course, the labeling of several DhaA mutants including the first generation mutant YL and the two second generation mutants, A7YM and H11YL mutants appeared to be complete by 2 minutes. A more expanded time course analysis was performed on the DhaA.H272F A7 and the two second generation DhaA.H272F mutants A7YM and H11YL. […] The fluorescent bands on gel were quantitated and the relative rates of product formation determined. […] Under these labeling conditions a linear initial rate could be measured. Quantitation of the fluorimaged gel data allowed second order rate constants to be calculated. […]

T1 sequence (P42345 2012-2144 limits assumed): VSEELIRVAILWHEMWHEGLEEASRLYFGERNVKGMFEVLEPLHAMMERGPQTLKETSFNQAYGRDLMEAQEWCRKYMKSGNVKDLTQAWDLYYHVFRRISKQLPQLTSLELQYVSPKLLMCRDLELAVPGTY
T1 sequence (P62942 whole entry): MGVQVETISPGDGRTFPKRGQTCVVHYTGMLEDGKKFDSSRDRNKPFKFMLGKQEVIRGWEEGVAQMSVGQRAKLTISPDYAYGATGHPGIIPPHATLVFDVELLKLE

B1: H11YL: second generation DhaA.H272F mutant, H11 recombined with Y273L; SEQ ID NO:18 (protein)
chain: SEIGTGFPFDPHYVEVLGERMHYVDVGPRDGTPVLFLHGNPTSSYLWRNIIPHVAPSHRCIAPDLIGMGKSDKPDLDYFFDDHVRYLDAFIEALGLEEVVLVIHDWGSALGFHWAKRNPERVKGIACMEFIRPIPTWDEWPEFARETFQAFRTADVGRELIIDQNAFIEGALPMGVVRPLTEVEMDHYREPFLKPVDREPLWRFPNELPIAGEPANIVALVEAYMNWLHQSPVPKLLFWGTPGVLIPPAEAARLAESLPNCKTVDIGPGLFLLQEDNPDLIGSEIARWLPAL
TMR labeling [1]: labeled | thermostability ranking [2]: V7>V6>V7F>V3>HT2 | carboxyfluorescein-C10H21NO2—Cl labeling rate slower/lower than carboxytetramethylrhodamine-C10H21NO2—Cl labeling rate [3]: 100 fold | calculated second order rate constant ([3]; FP): 2.2e+06 M⁻¹ s⁻¹ | second order rate constant compared with the DhaA.H272F parent ([3]; FP): over four orders of magnitude higher | TMR labeling in CHO cells [4]: labeled irrespective of rapamycin addition | second order rate constant for labeling [5]: 500000 M⁻¹ s⁻¹
